Measurements: publication PMC9472474

Biological target: T1, GST-RBM45 (6xHis-GST) (human, UniProt Q8IUH3 1-476)
T1 sequence: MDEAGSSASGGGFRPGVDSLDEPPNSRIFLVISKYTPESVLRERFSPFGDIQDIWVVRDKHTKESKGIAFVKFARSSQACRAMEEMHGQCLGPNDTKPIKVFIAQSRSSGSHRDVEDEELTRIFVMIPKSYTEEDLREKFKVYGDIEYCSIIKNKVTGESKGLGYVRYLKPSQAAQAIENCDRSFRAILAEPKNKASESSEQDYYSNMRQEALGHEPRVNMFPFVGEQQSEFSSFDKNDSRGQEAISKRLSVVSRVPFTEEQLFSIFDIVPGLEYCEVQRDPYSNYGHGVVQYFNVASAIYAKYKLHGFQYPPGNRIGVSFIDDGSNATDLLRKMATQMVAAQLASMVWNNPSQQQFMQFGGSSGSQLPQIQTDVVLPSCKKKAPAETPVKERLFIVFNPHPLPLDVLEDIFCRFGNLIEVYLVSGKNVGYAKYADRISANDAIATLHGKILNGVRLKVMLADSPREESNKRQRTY
Experiment: fluorescence polarization

UUCUUCUGUGGACUGUG (ssRNA, m6A at A12) [FAM m6A ssRNA]
Kd: 462 ± 73 nM
